Common to all, as to experiment: fluorescence anisotropy
For orientation: Fluorescence polarisation rises when a labelled molecule tumbles more slowly, as on binding a larger partner.

Series [1] concerns the target T1, [2Fe-2S]-IscR wild-type (Escherichia coli, UniProt P0AGK8 1-162).
T1 sequence: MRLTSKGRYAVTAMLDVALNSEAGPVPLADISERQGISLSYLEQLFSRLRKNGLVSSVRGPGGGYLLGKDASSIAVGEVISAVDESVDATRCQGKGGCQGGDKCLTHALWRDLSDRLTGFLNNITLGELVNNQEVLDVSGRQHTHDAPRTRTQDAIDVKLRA

Series [2] addresses T2, [2Fe-2S]-IscR-E43A (Escherichia coli, UniProt P0AGK8 1-162, E43A).
T2 sequence: T1 sequence with E43A

Series [3] has as its target T3, [2Fe-2S]-IscR-R59A (Escherichia coli, UniProt P0AGK8 1-162, R59A).
T3 sequence: T1 sequence with R59A

In series [4] the target is T4, [2Fe-2S]-IscR-S40A (Escherichia coli, UniProt P0AGK8 1-162, S40A).
T4 sequence: T1 sequence with S40A

Where a chain is given by its changes, count along the chain named.

B1: iscRB 30-mer (type 1) (dsDNA)
DNA 1: AAATAGTTGACCATTTTACTCGGGAATGTC
DNA 2: GACATTCCCGAGTAAAATGGTCAACTATTT
Consider B1, for which the Kd (commonly the equilibrium constant for the complex coming apart) was 24 ± 1 nM in series [1], 21 ± 1 nM in series [2] and 94 ± 3 nM in series [4]. Besides, the binding result in series [3] is on record as “no binding”.

B2: iscRBcc (symmetrical CC) (dsDNA)
DNA 1: B1 DNA 1 with T7C, T8C
DNA 2: B1 DNA 2 with A23G, A24G
On to B2, for which the binding result in series [1] is recorded as “binds”.

B3: hya 30-mer (type 2) (dsDNA)
DNA 1: ATAAATCCACACAGTTTGTATTGTTTTGTG
DNA 2: CACAAAACAATACAAACTGTGTGGATTTAT
As for B3, the binding result in series [2] is recorded as “binds”.

(Values after article PMC3676455.)
